Experimental findings from PMC3315506, “A Single Gene Target of an ETS-Family Transcription Factor Determines Neuronal CO2-Chemosensitivity” are described below.

Series [1] deals with T1, GST::ETS-5 (Caenorhabditis elegans, UniProt Q18579 1-208).
T1 sequence: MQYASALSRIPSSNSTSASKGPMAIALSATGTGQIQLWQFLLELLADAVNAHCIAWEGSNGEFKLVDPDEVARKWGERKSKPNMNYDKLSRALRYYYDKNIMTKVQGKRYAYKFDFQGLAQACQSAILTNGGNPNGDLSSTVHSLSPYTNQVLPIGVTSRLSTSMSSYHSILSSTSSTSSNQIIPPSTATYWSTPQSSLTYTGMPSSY
Put plainly: competition; scrambled competitor 10-500x molar excess over labeled N1; did not block; EMSA: 1 ug GST::ETS-5 or 2 ug GST, 0.1 pmol 3'-biotin duplex, room temperature 20 min, 6% polyacrylamide gel in 0.5x TBE; binding buffer, salt and pH not stated. The note with it: protein: recombinant; tags: N-terminal GST (pGEX); label: unlabeled; blunt. A general note: Mobility shift assays separate free from complexed probe on a gel.

The target of series [2] is T1, GST::ETS-5. Put plainly: EMSA; also blocked by excess unlabeled probe (10-500x); EMSA: 1 ug GST::ETS-5 or 2 ug GST, 0.1 pmol 3'-biotin duplex, room temperature 20 min, 6% polyacrylamide gel in 0.5x TBE; binding buffer, salt and pH not stated. Conditions: protein: recombinant; tags: N-terminal GST (pGEX); label: 3'-biotin (labeled probe); blunt.

B1: scrambled competitor (dsDNA)
DNA 1: CTGACCCCGTGTCGCTAATAGACTCAGTTACGCAAGATGG
DNA 2: CCATCTTGCGTAACTGAGTCTATTAGCGACACGGGGTCAG
For the molecule B1, the binding result in the series with GST::ETS-5 [1] is “no binding”.

B2: gcy-9 promoter ETS-site probe (45 bp) (dsDNA)
DNA 1: ATCCACTTCCGATGGGCCCTTCCGGCATGATAAGAAGTGAGTGGC
DNA 2: GCCACTCACTTCTTATCATGCCGGAAGGGCCCATCGGAAGTGGAT
For B2, the binding result with GST::ETS-5 [2] is on record as “binds”.
